{"source": "the supplement of paper PMC6379048", "assay_in_all_cases": "EC50 of free RNA motif oligo competing protein binding to immobilised probe", "key": {"[1]": {"molecular_target": "MRPS31 (UniProt Q92665)", "outline": "(§1)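 To obtain EC50, data were fitted with a four-parameter log-logistic model; Kd was then EC50 multiplied by a protein-dependent depletion factor. Beforehand, free RNA oligos (0 nM to 30 μM) were pre-incubated with HEK293-FT lysate (2.5 mg protein/well) for 1 h at 4°C. The lysate then spent 30 min at 4°C with the same 5′-amino-C6 oligos coupled to NHS-Sepharose beads, and bound proteins were quantified by label-free LC-MS/MS, normalised to the control.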"}, "[2]": {"molecular_target": "T1, DHX37 (UniProt Q8IY37)", "T1 sequence": "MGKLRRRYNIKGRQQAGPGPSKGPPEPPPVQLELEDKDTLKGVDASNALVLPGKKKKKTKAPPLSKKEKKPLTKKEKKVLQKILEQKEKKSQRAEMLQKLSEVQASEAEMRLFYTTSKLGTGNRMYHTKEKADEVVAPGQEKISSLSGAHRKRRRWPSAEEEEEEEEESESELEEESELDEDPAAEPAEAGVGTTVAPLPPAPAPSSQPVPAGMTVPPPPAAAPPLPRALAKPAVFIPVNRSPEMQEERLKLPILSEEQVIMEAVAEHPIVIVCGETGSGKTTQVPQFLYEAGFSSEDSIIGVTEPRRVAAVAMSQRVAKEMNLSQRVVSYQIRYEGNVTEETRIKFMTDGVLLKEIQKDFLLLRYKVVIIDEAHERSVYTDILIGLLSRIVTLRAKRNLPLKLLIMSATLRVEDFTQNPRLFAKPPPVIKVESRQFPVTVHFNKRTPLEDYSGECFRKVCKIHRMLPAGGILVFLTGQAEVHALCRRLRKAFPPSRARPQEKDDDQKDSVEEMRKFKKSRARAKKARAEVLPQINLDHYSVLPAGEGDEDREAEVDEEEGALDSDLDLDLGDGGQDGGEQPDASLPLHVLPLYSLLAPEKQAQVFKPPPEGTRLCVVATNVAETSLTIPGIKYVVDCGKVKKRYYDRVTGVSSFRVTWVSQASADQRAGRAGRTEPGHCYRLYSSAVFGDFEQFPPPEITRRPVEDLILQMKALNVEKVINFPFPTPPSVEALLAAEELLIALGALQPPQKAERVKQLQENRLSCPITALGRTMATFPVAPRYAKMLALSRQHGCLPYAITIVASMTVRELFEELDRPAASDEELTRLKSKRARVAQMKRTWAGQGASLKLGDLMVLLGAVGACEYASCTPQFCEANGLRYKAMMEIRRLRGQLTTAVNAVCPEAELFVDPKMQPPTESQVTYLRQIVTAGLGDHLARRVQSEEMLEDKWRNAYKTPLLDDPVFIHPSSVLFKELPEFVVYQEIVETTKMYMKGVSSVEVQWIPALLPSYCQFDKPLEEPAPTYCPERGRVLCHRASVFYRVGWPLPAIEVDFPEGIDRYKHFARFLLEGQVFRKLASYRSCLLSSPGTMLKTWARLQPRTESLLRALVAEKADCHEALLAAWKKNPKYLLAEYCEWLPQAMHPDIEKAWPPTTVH", "outline": "as §1"}, "[3]": {"molecular_target": "MRPS27 (UniProt Q92552)", "outline": "as §1"}, "[4]": {"molecular_target": "RPS12 (UniProt P25398)", "outline": "as §1"}, "[5]": {"molecular_target": "RPS18 (UniProt P62269)", "outline": "as §1"}, "[6]": {"molecular_target": "MRPL43 (UniProt Q8N983)", "outline": "as §1"}, "[7]": {"molecular_target": "RPSA (UniProt P08865)", "outline": "as §1"}, "[8]": {"molecular_target": "MRPS18A (UniProt Q9NVS2)", "outline": "as §1"}, "[9]": {"molecular_target": "T2, SRSF11 (UniProt Q05519)", "T2 sequence": "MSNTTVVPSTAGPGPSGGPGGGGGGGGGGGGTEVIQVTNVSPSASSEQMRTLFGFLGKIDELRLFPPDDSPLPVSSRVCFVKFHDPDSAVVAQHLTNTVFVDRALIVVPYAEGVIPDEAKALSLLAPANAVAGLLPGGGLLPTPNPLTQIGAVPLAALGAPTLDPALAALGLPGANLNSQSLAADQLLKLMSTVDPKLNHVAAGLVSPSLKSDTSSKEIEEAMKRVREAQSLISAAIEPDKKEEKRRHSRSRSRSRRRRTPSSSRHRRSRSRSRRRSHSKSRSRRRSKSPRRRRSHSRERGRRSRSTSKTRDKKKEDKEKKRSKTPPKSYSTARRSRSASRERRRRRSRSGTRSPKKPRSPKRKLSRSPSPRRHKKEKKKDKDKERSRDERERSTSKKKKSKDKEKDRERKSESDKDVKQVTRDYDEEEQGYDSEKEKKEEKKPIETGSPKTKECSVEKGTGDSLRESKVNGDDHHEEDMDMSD", "outline": "as §1"}}}
{"sequence": "UAUUUAU", "values": [{"measurement": "EC50", "setting": "[1]", "value": 93.7, "unit": "nM"}, {"measurement": "EC50", "setting": "[2]", "value": 4.68, "unit": "µM"}, {"measurement": "EC50", "setting": "[3]", "value": 82.5, "unit": "nM"}]}
{"sequence": "CUGUCCU", "values": [{"measurement": "EC50", "setting": "[4]", "value": 392, "unit": "nM"}, {"measurement": "EC50", "setting": "[5]", "value": 89.4, "unit": "nM"}, {"measurement": "EC50", "setting": "[6]", "value": 104, "unit": "nM"}, {"measurement": "EC50", "setting": "[7]", "value": 491, "unit": "nM"}, {"measurement": "EC50", "setting": "[8]", "value": 102, "unit": "nM"}]}
{"sequence": "AAUAAA", "values": [{"measurement": "EC50", "setting": "[9]", "value": 1110, "unit": "nM"}]}
